Residue numbers refer to the chain shown, from its start.
Experiments:
human NKG2D-Fc [1] = target: T1, human NKG2D-Fc (human, UniProt P26718 73-216); assay: ELISA on plate-adsorbed recombinant human NKG2D-Fc, anti-human kappa-HRP, OD 450 nm
T1 construct: extracellular domain; also called recombinant human NKG2D-Fc; NKG2D-Fc-biotin
T1 sequence (looked up): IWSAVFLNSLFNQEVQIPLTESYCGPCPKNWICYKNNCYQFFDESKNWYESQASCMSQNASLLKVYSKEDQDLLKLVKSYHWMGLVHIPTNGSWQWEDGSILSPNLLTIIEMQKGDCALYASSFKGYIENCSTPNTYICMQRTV
From the text: (§1) The nucleic acid sequences of human, mouse or cynomolgus NKG2D ectodomains were fused with nucleic acid sequences encoding human IgG1 Fc domains and introduced into mammalian cells to be expressed. After purification, NKG2D-Fc fusion proteins were adsorbed to wells of microplates. After blocking the wells with bovine serum albumin to prevent non-specific binding, NKG2D-binding domains were titrated and added to the wells pre-adsorbed with NKG2D-Fc fusion proteins. Primary antibody binding was detected using a secondary antibody which was conjugated to horseradish peroxidase and specifically recognizes a human kappa light chain to avoid Fc cross-reactivity. 3,3′,5,5′-Tetramethylbenzidine (TMB), a substrate for horseradish peroxidase, was added to the wells to visualize the binding signal, whose absorbance was measured at 450 nm and corrected at […]. An NKG2D-binding domain clone, an isotype control or a positive control (comprising heavy chain and light chain variable domains selected from the group consisting of: SEQ ID NOs: 526-529, or anti-mouse NKG2D clones MI-6 and CX-5 available at eBioscience) was added to each well.

mouse NKG2D-Fc = target: T2, mouse NKG2D-Fc (mouse, UniProt O54709 90-232); assay: ELISA on plate-adsorbed recombinant mouse NKG2D-Fc, anti-human kappa-HRP, OD 450 nm
T2 construct: extracellular domain; also called Mouse NKG2D-Fc-biotin
T2 sequence (looked up): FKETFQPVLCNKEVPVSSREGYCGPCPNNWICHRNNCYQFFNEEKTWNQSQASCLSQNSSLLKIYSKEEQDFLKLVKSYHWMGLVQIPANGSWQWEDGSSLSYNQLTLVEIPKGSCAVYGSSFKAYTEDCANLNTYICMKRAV
From the text: as §1

cynomolgus NKG2D-Fc = target: T3, cynomolgus NKG2D-Fc (cynomolgus monkey, UniProt P61252 73-216); assay: ELISA on plate-adsorbed recombinant cynomolgus NKG2D-Fc, anti-human kappa-HRP, OD 450 nm
T3 construct: extracellular domain
T3 sequence (looked up): T1 sequence (looked up) with D43N, T133I
From the text: as §1

human NKG2D-Fc [2] = target: T1, human NKG2D-Fc; assay: competition ELISA on plate-adsorbed human NKG2D-Fc; blocked ligand ULBP-6-His-biotin
Method: Recombinant human NKG2D-Fc proteins were adsorbed to wells of a microplate, and the wells were blocked with bovine serum albumin to reduce non-specific binding. A saturating concentration of ULBP-6-His-biotin was added to the wells, followed by addition of the NKG2D-binding domain clones. After a 2-hour incubation, wells were washed and ULBP-6-His-biotin that remained bound to the NKG2D-Fc coated wells was detected by streptavidin-conjugated to horseradish peroxidase and TMB substrate. Absorbance was measured at 450 nm and corrected at […]. After subtracting background, specific binding of NKG2D-binding domains to the NKG2D-Fc proteins was calculated from the percentage of ULBP-6-His-biotin that was blocked from binding to the NKG2D-Fc proteins in wells.

[3] = target: T4, soluble mouse Fc-human NKG2D dimer (human, UniProt P26718 78-216, limits assumed); assay: SPR, mAb captured by anti-hFc, 37C
T4 construct: also called NKG2D-mFc; human NKG2D fused to a mouse Fc
T4 sequence (looked up): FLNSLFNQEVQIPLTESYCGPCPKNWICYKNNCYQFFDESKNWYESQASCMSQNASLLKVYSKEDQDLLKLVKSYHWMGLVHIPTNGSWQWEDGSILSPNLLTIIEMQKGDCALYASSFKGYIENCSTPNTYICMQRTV
Method: Kinetics and affinity of various NKG2D-binding domains were assessed by surface plasmon resonance using Biacore 8K instrument (GE Healthcare). Anti-human Fe antibody was immobilized on a CM5 chip using standard amine coupling chemistry. Human monoclonal antibodies containing various NKG2D-binding domains were captured on the anti-human Fc chip at a density of approximately 100 RU. […] Surfaces were regenerated between cycles by quick injection of 10 mM glycine, pH 1.8. To obtain kinetic rate constants, double-referenced data were fit to a 1:1 interaction model using Biacore 8K Evaluation software (GE Healthcare). The equilibrium binding constant KD was determined by the ratio of dissociation constant kd and association constant kₐ (kd/kₐ).

human CEACAM5 on cells [4] = target: T5, human CEACAM5 on cells (human, UniProt P06731 35-685); assay: flow cytometry, LoVo cells
T5 construct: tumour cell lines with endogenous CEACAM5, or B16F10 engineered to express hCEACAM5; also called CEACAM5 on MKN-45, HPAF-II, SK-CO-1, LoVo, BxPC-3, Kato-III, LS-174T, ZR-75-30; hCEACAM5-B16F10
T5 sequence: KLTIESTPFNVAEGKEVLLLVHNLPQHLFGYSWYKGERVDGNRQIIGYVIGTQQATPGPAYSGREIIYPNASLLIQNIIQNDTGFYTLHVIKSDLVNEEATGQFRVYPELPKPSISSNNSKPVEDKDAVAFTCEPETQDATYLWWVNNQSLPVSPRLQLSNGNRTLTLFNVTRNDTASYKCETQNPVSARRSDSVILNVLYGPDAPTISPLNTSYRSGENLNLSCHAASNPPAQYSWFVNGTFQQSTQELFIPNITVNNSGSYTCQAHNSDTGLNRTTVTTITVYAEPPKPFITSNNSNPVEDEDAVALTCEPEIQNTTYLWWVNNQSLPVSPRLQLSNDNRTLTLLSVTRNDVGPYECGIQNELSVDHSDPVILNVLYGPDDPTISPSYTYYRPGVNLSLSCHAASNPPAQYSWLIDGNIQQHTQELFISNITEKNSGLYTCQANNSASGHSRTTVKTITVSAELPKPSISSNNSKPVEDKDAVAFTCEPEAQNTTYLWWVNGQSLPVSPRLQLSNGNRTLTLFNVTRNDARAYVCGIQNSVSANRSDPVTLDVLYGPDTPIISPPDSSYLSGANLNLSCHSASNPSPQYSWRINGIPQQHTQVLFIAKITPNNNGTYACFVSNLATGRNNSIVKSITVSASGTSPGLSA

human CEACAM5 on cells [5] = target: T5, human CEACAM5 on cells; assay: flow cytometry, Kato-III cells
human CEACAM5 on cells [6] = target: T5, human CEACAM5 on cells; assay: flow cytometry, MKN-45 cells
human CEACAM5 on cells [7] = target: T5, human CEACAM5 on cells; assay: flow cytometry, SK-CO-1 cells
human CEACAM5 on cells [8] = target: T5, human CEACAM5 on cells; assay: flow cytometry, BxPC-3 cells

B1: ADI-27705 (antibody, V domains shown)
VH: QVQLQQWGAGLLKPSETLSLTCAVYGGSFSGYYWSWIRQPPGKGLEWIGEIDHSGSTNYNPSLKSRVTISVDTSKNQFSLKLSSVTAADTAVYYCARARGPWSFDPWGQGTLVTVSS
VL: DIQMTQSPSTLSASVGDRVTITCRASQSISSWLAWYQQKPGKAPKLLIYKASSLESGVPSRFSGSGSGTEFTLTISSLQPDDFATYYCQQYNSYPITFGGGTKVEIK
notes: named as a single clone only on the drawing sheets
- EC50 (read off the curve) (human NKG2D-Fc [1]): ~0.6 nM
- binding result (mouse NKG2D-Fc): binds
- binding result (cynomolgus NKG2D-Fc): binds

B2: ADI-28226 (antibody, V domains shown)
VH: B1 VH
VL: DIQMTQSPSTLSASVGDRVTITCRASQSISSWLAWYQQKPGKAPKLLIYKASSLESGVPSRFSGSGSGTEFTLTISSLQPDDFATYYCQQYGSFPITFGGGTKVEIK
notes: named as a single clone only on the drawing sheets; also called C26
- binding result (human NKG2D-Fc [1]): binds
- binding result (mouse NKG2D-Fc): binds
- binding result (cynomolgus NKG2D-Fc): binds

B3: ADI-27724 (antibody, V domains shown)
VH: B1 VH
VL: not shown
notes: as for B1
- EC50 (read off the curve) (human NKG2D-Fc [1]): ~10 nM
- EC50 (read off the curve) (mouse NKG2D-Fc): ~8 nM
- EC50 (read off the curve) (cynomolgus NKG2D-Fc): ~8 nM

B4: ADI-27741 (antibody, V domains shown)
VH: B1 VH
VL: DIQMTQSPSTLSASVGDRVTITCRASQSIGSWLAWYQQKPGKAPKLLIYKASSLESGVPSRFSGSGSGTEFTLTISSLQPDDFATYYCQQSNSYYTFGGGTKVEIK
notes: as for B1
- binding result (human NKG2D-Fc [1]): binds
- binding result (mouse NKG2D-Fc): binds
- binding result (cynomolgus NKG2D-Fc): binds

B5: ADI-27740 (antibody, V domains shown)
VH: B1 VH
VL: B4 VL with S91Y, N92H, Y94F
notes: named as a single clone only on the drawing sheets; also called A40
- EC50 (read off the curve) (human NKG2D-Fc [1]): ~0.3 nM
- EC50 (read off the curve) (mouse NKG2D-Fc): ~0.2 nM
- EC50 (read off the curve) (cynomolgus NKG2D-Fc): ~0.3 nM
- IC50 (read off the curve) (human NKG2D-Fc [2]): ~6 nM

B6: ADI-27744 (A44) (antibody, V domains shown)
VH: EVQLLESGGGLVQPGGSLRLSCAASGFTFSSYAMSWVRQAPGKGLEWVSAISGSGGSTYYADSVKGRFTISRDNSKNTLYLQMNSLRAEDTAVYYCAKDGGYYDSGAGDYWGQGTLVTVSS
VL: DIQMTQSPSSVSASVGDRVTITCRASQGIDSWLAWYQQKPGKAPKLLIYAASSLQSGVPSRFSGSGSGTDFTLTISSLQPEDFATYYCQQGVSYPRTFGGGTKVEIK
- Kd [3]: 10.1 nM
- koff [3]: 0.00299 s⁻¹
- kon [3]: 295000 M⁻¹ s⁻¹

B7: ADI-29379 (E79) (antibody, V domains shown)
VH: QVQLVQSGAEVKKPGASVKVSCKASGYTFTSYYMHWVRQAPGQGLEWMGIINPSGGSTSYAQKFQGRVTMTRDTSTSTVYMELSSLRSEDTAVYYCARGAPNYGDTTHDYYYMDVWGKGTTVTVSS
VL: EIVMTQSPATLSVSPGERATLSCRASQSVSSNLAWYQQKPGQAPRLLIYGASTRATGIPARFSGSGSGTEFTLTISSLQSEDFAVYYCQQYDDWPFTFGGGTKVEIK
- Kd [3]: 50.7 nM
- koff [3]: 0.0225 s⁻¹
- kon [3]: 443000 M⁻¹ s⁻¹

B8: AB0755 (antibody, V domains shown)
VH: QVQLVQSGAEVKKPGASVKVSCKASGYTFTAYTIHWVRQAPGQGLEWMGYINPSSGYTEYNQKFKDRTTLTADTSIPTAYMELSRLRSDDTAVYYCTREGGLLWFDYWGQGTLVTVSS
VL: DIVMTQSPDSLAVSLGERATINCKSSHSLLYGNFQNNYLAWYQQKPGQPPKLLIYWASTRESGVPDRFSGSGSGTDFTLTISSLQAEDVAVYYCQQYYSYPYTFGGGTKLEIK
notes: the scFv entries carry the stabilising cysteines, which the mAb may lack; also called mAb corresponding to AB0264
- EC50 (human CEACAM5 on cells [4]): 2.71 nM
- Max FOB (human CEACAM5 on cells [4]): 7 fold over background
- EC50 (human CEACAM5 on cells [5]): 1.16 nM
- Max FOB (human CEACAM5 on cells [5]): 3 fold over background
- EC50 (human CEACAM5 on cells [6]): 4.69 nM
- Max FOB (human CEACAM5 on cells [6]): 23 fold over background
- EC50 (human CEACAM5 on cells [7]): 5.84 nM
- Max FOB (human CEACAM5 on cells [7]): 14 fold over background
- EC50 (human CEACAM5 on cells [8]): 3.37 nM
- Max FOB (human CEACAM5 on cells [8]): 5 fold over background

B9: ADI-27749 (A49) (antibody, V domains shown)
VH: EVQLVESGGGLVKPGGSLRLSCAASGFTFSSYSMNWVRQAPGKGLEWVSSISSSSSYIYYADSVKGRFTISRDNAKNSLYLQMNSLRAEDTAVYYCARGAPMGAAAGWFDPWGQGTLVTVSS
VL: B6 VL with D30S, Y94F
- Kd [3]: 12.4 nM
- koff [3]: 0.00489 s⁻¹
- kon [3]: 395000 M⁻¹ s⁻¹

B10: ADI-29378 (E78) (antibody, V domains shown)
VH: QVQLVQSGAEVKKPGASVKVSCKASGYTFTSYYMHWVRQAPGQGLEWMGIINPSGGSTSYAQKFQGRVTMTRDTSTSTVYMELSSLRSEDTAVYYCAREGAGFAYGMDYYYMDVWGKGTTVTVSS
VL: B7 VL with M4L, V13L, N32Y, G50D, T53N, E70D, Q79E, S80P, Y91S, D93N
- Kd [3]: 58.5 nM
- koff [3]: 0.0487 s⁻¹
- kon [3]: 832000 M⁻¹ s⁻¹

Reference: patent US20240124607A1 (Merck Sharp & Dohme, published 2024)
